Experimental findings from the nanobody polyreactivity screen of Harvey et al. (2022) are described below.

This data set is described as follows: yeast display, Sf9 membrane polyspecificity reagent, FACS + sequencing; frameworks hold sequencing errors. In a few lines:
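Galactose induction of a Saccharomyces cerevisiae BJ5465 synthetic nanobody display library ran 36–48 hours. The cells were then stained for 1 hour at 4 °C with 10% biotinylated, detergent-solubilized Sf9 membrane reagent, pulled down on streptavidin microbeads and FACS-sorted into low and high (top ~1%) gates on expression and reagent-binding fluorescence. Labels for polyreactivity follow the gate of origin.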
For the sequence “QVQLVESGGGLVQAGGSLRLICAASGRTLGGNDMGWYRQAPGKERELVAAITNSASTYADSVKGRFTISRDNAKNTVYLQMNSLKPEDTAVYYCNAPDPSDQHGDYWGQGTQVTVSS”, the “polyreactivity (PSR sort gate)” value was “low polyreactivity”.

As for “QVQLVESGGGLVQAGGSLRLICAASGSIFAYNAMGWYRQAPGKERELVAAITDSGGSTFYADSVKGRFTISRDNAKNTVYLQMNSLKPEDTAVYYCATSGDRLVWGQGTQVTVSS”, the “polyreactivity (PSR sort gate)” value is reported as “low polyreactivity”. For “QVQLVESGGGLVQAGGSLRLICAASGSIFDFYAMGWYRQAPGKERELVAAISRNGGSTYYADSVKGRFTISRDNAKNTFYLQMNSLKPEDTAVYYCNKTVYVGAKEYDYWGQGTQVTVSS” the value was “high polyreactivity”. For “QVQLVESGGGLVQAGGSLRLICAASGSIFFVYDMGWYRQAPGKERELVAAITWSGGRTTYADSVKGRFTISRDNAKNTVYLQMNSMKPEDTAVYYCAKAWPDHWYSRYDYWGQGTQVTVSS” the value was “low polyreactivity”; for “QVQLVESGGGLVQAGGSLRLICAASGSIFGLYVMGWYRQAPGKERELVATITSGGSTYYADSVKGRFTISRDNAKNTVYLQMNSLKPEDTAVYYCNTRWTPSREYDYWGQGTQVTVSS”, “low polyreactivity”; for “QVQLVESGGGLVQAGGSLRLICAASGSIFHVNSMGWYRQAPGKERELVAGISDGGSTYYADSVKGRFTISRDNAKNTVYLQMNSLKPEDTAVSYCAAESEQWYSYVLSYDWEYDYWGQGTHVTVSS”, “low polyreactivity”. For “QVQLVESGGGLVQAGGSLRLICAASGSIFLYYAMGWYRQAPGKEMELVAAITSTGSTYYADSVKGRFTISRDNAKNTVYLQMNSLKPEDTAVYYCAAELRRLFYAYGYWGQGTQVTVSS” the value was “low polyreactivity”. In the case of “QVQLVESGGGLVQAGGSLRLICAASGSIFNQNSMGWYRQAPGKERELVAVISSGGRTSYADSVKGRFTISRDNAKNTVFLLMNSLKPEDTAVYYCNREGWHYGPYGYWGQGTQVTVSS”, the “polyreactivity (PSR sort gate)” value was “low polyreactivity”. Then “QVQLVESGGGLVQAGGSLRLICAASGSIFNYYAMGWYRQAPGKERELVAGITTSGGSTYYADSVKGRFTISRDNAKNTVHLQMNSLKPEDTAVYYCAAYDYISSTYFLDDYWGQGTQVTVSS”, with “low polyreactivity”; and “QVQLVESGGGLVQAGGSLRLICAASGSIFRKNAMGWYRQAPGKERELVAAITGTGRTTYADSVMGRFTISRDNAKNTVYLQRNSLKPEDTAVYYCAADVNYYQHRLYYWGQGTQVTVSS”, with “low polyreactivity”.

With “QVQLVESGGGLVQAGGSLRLICAASGSIFSFYAMGWYRQAPGKERELVAAITSDGSTDYADSVKGRFTISRDNAKNTVYLQMNCLKPEDTAVYYCAADYIVRVVSRYRYGYEYWGQGTQVTVSS”, the “polyreactivity (PSR sort gate)” value is reported as “low polyreactivity”. For “QVQLVESGGGLVQAGGSLRLICAASGSIFTLYDMGWYRQAPGKERELVAAITSGGSTDYADSVKGRFTISRDNAKNTVYLQMNSLKPEDTAVYYCNAEAYPYWYRGASREYDYWGQGTQVTVSS” the value was “low polyreactivity”; for “QVQLVESGGGLVQAGGSLRLICAASGSIFTYYVMGWYRQAPGKDRDLVAGISRAGSTNYADSVKGRFTISRDNAKNTVYLQMNSLKPEDTAVYYCAKSVWFVKHRKPHDYWGQGTQVTVSS”, “low polyreactivity”. Turning to “QVQLVESGGGLVQAGGSLRLICAASGSIFYRYAMGWYRQAPGKERELVAAISSNGVSTYYADSVKGRFTISRDNAKNTVYLQMNSLKPEDTAVYYCARDVYASPRLYTSRYNYWGQGTQVTVSS”, the “polyreactivity (PSR sort gate)” value was “low polyreactivity”.

For the sequence “QVQLVESGGGLVQAGGSLRLICAASGSIIHKNAMGWYRQAPGKERELVARITSSSGSTYYADSVKGRFTISRDNAKNTVYLQMNSLKPEDTAVYYFNAVYYHDVDFDYWGQGTQVTVSS”, the “polyreactivity (PSR sort gate)” value is “high polyreactivity”.

In the case of “QVQLVESGGGLVQAGGSLRLICAASGSILYKYAMGWYRQAPGKERELVAAISSRGGNTYYADSVKGRFTISRDNAKNTVYLHMNSLKPEDTAVYYCAADMWAGKYGEYDYWGQGTQVTVSS”, the “polyreactivity (PSR sort gate)” value is “high polyreactivity”. Then “QVQLVESGGGLVQAGGSLRLICAASGSIQDWNAMGWYRQAPGKERELVAAITNGVSTHYADSVKGRFTISRDNAKNTVYLQMNSLKPEDTAVYYCAKAFWWRPEWWLRSARGSWGLGTQVTVSS”, with “low polyreactivity”; and “QVQLVESGGGLVQAGGSLRLICAASGSNFNPYAMGWYRQAPGKERELVAAINSGDSTNYADSVKGRFSISRDNAKNTLYLQMNSLKPEDTAVFYCANRYRRRYNYWGQGTQETVSS”, with “high polyreactivity”.

On to “QVQLVESGGGLVQAGGSLRLICAASGSTFATYSMGWYRQAPGKERELVAAITLRGGRTYYADSVKGRFTISRDNAKNTVYLQMNSLKPEDTAVYYCAAEYYYLSFGLTWWRGFDYWGQGTHVTVSS”, for which the “polyreactivity (PSR sort gate)” value was “high polyreactivity”. For “QVQLVESGGGLVQAGGSLRLICAASGSTFAYNDMGWYRQAPGKERELVADIRSGGNTNYADSVKGRFTISRDNAKNTVYLQMNSLKPEDTAVYYCATDCYRIDVYHPDYRYDYWGQGTQVTVSS” the value was “low polyreactivity”; for “QVQLVESGGGLVQAGGSLRLICAASGSTFGPYSMGWYRQAPGKERELVAAIDQISSSTHYADSVKGRFTISRDNAKNTVYLQMNSLKPEDTAVYYCNADEFRYGYFPHYDYWGQGTQVTVSS”, “low polyreactivity”.

With “QVQLVESGGGLVQAGGSLRLICAASGSTFGRNAMGWSRQAPGKERELVAAISSGGRTYYADSVKGRFTSSRDNAKHTVYVQLNSLKPEDSAVYYCARDDYGTLVKLYVRGFNYWGQGTQVTVSS”, the “polyreactivity (PSR sort gate)” value was “low polyreactivity”. Then “QVQLVESGGGLVQAGGSLRLICAASGSTFKGYAMGWYIQSPGKERELVAAISWPGGRTSYADSVKGRFTISRDNAKNTVYLQMNSLKPEDTAVYYCNKAWWVQKGYFFYYWEQGTQVTVSS”, with “high polyreactivity”; and “QVQLVESGGGLVQAGGSLRLICAASGSTFLVYSMGWYRQEPGKERELVAAISYSGGSTYYADSVKGRFTISRDNSKNTVYLQLNSLKPEDTAVYYCNVEPVDRWYYKYDYWGQGTEVTVSS”, with “low polyreactivity”. “QVQLVESGGGLVQAGGSLRLICAASGSTFPSYAMGWYRQAPGKERELVAAITWSGDSTYYADSVKGRFTILRDNAKNTVYLQMNSLKPEDTAVYYCAKDGGYPVGVLGGDDMEYWGQGTQVTVSS”: the “polyreactivity (PSR sort gate)” value was “low polyreactivity”. Then “QVQLVESGGGLVQAGGSLRLICAASGSTFQDYGMGWYRQAPGKERELVAAITTGDITNYADSVKGRFTISRDNAKKTVYLQMNSLKAEDTAVYYCNAEPKFYPDAGDDYWGQGTQVTVSS”, with “low polyreactivity”; and “QVQLVESGGGLVQAGGSLRLICAASGSTFRWNALRWYRQAPGKERELVAAITWSGGSTYYADSVKVRFTISRDNAKNTVYVQMNSLKPEDTAVYYCNACGLFQYDSWGQGTKVTVSS”, with “low polyreactivity”. For “QVQLVESGGGLVQAGGSLRLICAASGSTFRYYAMGWYRQAPGKEREFVAAISLRAGSTYYADSVKGRFTISRDNAKNTVYLQMNSLKPEDTAVYYCAARRASYGTRRYDYWGQGTQVTVSS” the value was “high polyreactivity”; for “QVQLVESGGGLVQAGGSLRLICAASGSTFSENTMGSYRPAPGKERELVAAISFSGASTYYADSVKGRFTISRDYAKKTVYLQLNSLKPEDTAVYYCRRFTSSPKLALGEYDYWGQGTQVTVSS”, “low polyreactivity”. Take “QVQLVESGGGLVQAGGSLRLICAASGSTFTGYAMGWYRQAPGKERELVAAINWRGGTTYYADSVKGRFTISRDNAKNTVYLQMNSLKPEDTAVYYCNKYRISGLSKFYYWGQGTQVTVSS”: the “polyreactivity (PSR sort gate)” value is on record as “high polyreactivity”. For “QVQLVESGGGLVQAGGSLRLICAASGSTFTTYAMGWYRQAPGKEREFVAGISWSGGSTRYADSVKGRFTISRDNAKNTVYLQMNSLKPEDTAVYYCAAGRKRDSKYYYWGQGTQVTVSS” the value was “high polyreactivity”. For the sequence “QVQLVESGGGLVQAGGSLRLICAASGSTFYTYAMGWYRQAPGKERELVAAITYSGGTTYYADSVKGRFTISRDSAKNTVYLQMNSLKPEDTAFYYCNTRSYYYSDDYWGQGTQVTVSS”, the “polyreactivity (PSR sort gate)” value was “low polyreactivity”. For “QVQLVESGGGLVQAGGSLRLICAASGTFVTYMGWYRQAPGKERELVAAIRNGGSTNYADSVKGRFTISRDNAKNTVYLQMNSLKPEDTAVYYCAARVTYSRGYRGGSRTKYDYWGQGTQVTVSS” the value was “low polyreactivity”. For “QVQLVESGGGLVQAGGSLRLICAASGTIFSDNEMGRYRQAPGKEREFVADISSDGSTYYADSVKGRFTISRDNAKNTVYLQMNSLKPEDTAVYYCDADPIFSLYYHYGHFDYWGQGTQVTVSS” the value was “low polyreactivity”; for “QVQLVESGGGLVQAGGSLRLICAASGVNAMGWYRQAPGKEREFVAAITSIGGSTYYADSVKGRFTISRDNAKNSVYLQMNSLKPEDTAVYYCNTDRGPVKVSPLYESWGQGTQVTVSS”, “low polyreactivity”. For “QVQLVESGGGLVQAGGSLRLICAASGYIFDYYAMGWYRQAPGKERELVAAISWSGGSTYYADSVKGRFTISRDNEKNTVSLQMNSLKPEDTAVYYCAAEGTYYGSDYWGQGTQVTVSS” the value was “high polyreactivity”. For the sequence “QVQLVESGGGLVQAGGSLRLICAASGYIFKYYAMGWYRQAPGKERELVATINYSGGGTYYADSVKGRFTISRDNAKNTVYLQMNSLKPEDTAVYYCAAREKYISYSYYYWGQGTQVTVSS”, the “polyreactivity (PSR sort gate)” value was “high polyreactivity”. For “QVQLVESGGGLVQAGGSLRLICAASGYIFYDYAMGWYRQAPGKERQLVATITSGGRTYADSVKGRFTISRDNAKNTVYLQMNSLKPEDTAVYYCAVDQYGAMDYWGQGTQVTVSS” the value was “low polyreactivity”; for “QVQLVESGGGLVQAGGSLRLICAASGYNCKYYAMGWYRAAPGKERELVASITSGGRTNYADSVKGRFTISRDNAKNTVYLQMNSLKPEDTAVYYCASRKPWKFVRTYTYDYWGQGTQLTVSS”, “high polyreactivity”. For “QVQLVESGGGLVQAGGSLRLICAASVSIFTKYAMGWYRQAPGKERELVADITRSGGSTYYADSVKGRFTISRDNAKNTVYLQMNSLKPEDTAVYYCAVDPVRYPYSYDYWGQGTQVTVSS” the value was “high polyreactivity”; for “QVQLVESGGGLVQAGGSLRLICAAYGRIFQGYAMGWYRQAPGKERELVAAITLSGGSTYYADSVKGRFTISRDNAKNTVYLQMNSLKPEDTAVSYCNAYYPDEPSLYDYWGQGTQVTVSS”, “low polyreactivity”.
